One may read the koff as the rate constant with which the complex falls apart. Lower therefore signals a long-lived complex. The term EC50 denotes the concentration giving half of the maximal effect. A high value points to weaker potency.

Test [1] concerns the target T1, human PD-L1/His fusion protein (human, UniProt Q9NZQ7 19-239). As to the kind of experiment: BLI off-rate; test group 1. As to the method:
(§1) All 15 antibodies in Table 13 were assayed for and ranked by dissociation rate constant (koff). […] Briefly, antibodies were characterized for affinities and binding kinetics by Octet®RED96 biolayer interferometry (Pall ForteBio LLC). Antibodies were captured by Anti-hIgG Fc Capture (AHC) Biosensors (Pall) at a concentration of 100 nM for 30 seconds. Sensors were then dipped into running buffer (1×pH 7.2 PBS, 0.05% Tween 20, 0.1% BSA) for 60 seconds to check the baseline. Binding was measured by dipping sensors into a single concentration of recombinant human PD-L1/His fusion protein (Novoprotein). Dissociation was followed by dipping sensors into running buffer for 1200 seconds. The association and dissociation curves were fitted to a 1:1 Langmuir binding model using ForteBio Data Analysis software (Pall). […] The off-rate ratio serves as a data normalization. Accordingly, in each test group, the off-rate ratios of the humanized antibodies can be compared with that of the chimeric antibody, and the off-rate ratios of each of the humanized antibodies can be compared to one another within all test groups.

In test [2] the target is T1, human PD-L1/His fusion protein. As to the kind of experiment: BLI Octet RED96, antibody on AHC sensor, single conc. PD-L1/His; test group 1. As to the method:
as §1
(In general: BLI is a label-free optical method that tracks binding on a fibre tip over time.)

The target is the same in test [3]. Nature of the test: BLI off-rate; test group 3. As to the method:
as §1

Test [4] has the same target. As to the kind of experiment: BLI Octet RED96, antibody on AHC sensor, single conc. PD-L1/His; test group 3. As to the method:
as §1

Test [5] has as its target T2, human TGFβ2 (human, UniProt P61812 303-414).
T2 construct: also called TGFβ isoform 2; TGFβ2 (Cat. No. CJ79, Novoprotein)
T2 sequence (looked up): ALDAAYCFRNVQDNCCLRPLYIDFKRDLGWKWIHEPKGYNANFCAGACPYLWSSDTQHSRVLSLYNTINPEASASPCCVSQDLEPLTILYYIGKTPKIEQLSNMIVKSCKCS
As to the kind of experiment: ELISA: human TGFβ2 coated (1 µg/ml), binding protein titrated 0.0006-10 nM, anti-human IgG Fc-HRP, OD450. As to the method: (§2) Accordingly, each of the wells of the ELISA microplates provided a reaction mixture to test the ability of a particular binding protein at a particular concentration to bind to a particular TGFβ isoform. […] Plates were washed three times in washing buffer (PBS containing 0.05% Tween 20) and blocked for 1 hour at 37° C. with 200 μl per well of blocking buffer (1% BSA in PBS containing 0.05% Tween 20). […] The wells containing the various binding mixtures were incubated at 37° C. for 1 hour to permit binding to TGFβ protein on the surface of the wells. Thereafter, the wells were washed four times with washing buffer, and anti-human IgG Fc HRP (Sigma, Catalog No. A0170) was diluted 1:10000 and added to the wells at 100 μl per well to detect binding protein that was bound to TGFβ protein present on the surface of a well. The plates were incubated for 1 hour at 37° C. and washed four times with washing buffer. 100 μl of tetramethylbenzidine (TMB) chromogenic solution were added per well. Following color development, the reaction was stopped with 1 N HCl, and absorbance at 450 nm (OD450) was measured on a VARIOSKAN™ LUX microplate reader (Thermo Scientific™).
(ELISA stands for enzyme-linked immunosorbent assay.)

Test [6] addresses T3, human TGFβ1 (human, UniProt P01137 279-390).
T3 construct: also called TGFβ isoform 1; TGFβ1 (Cat. No. CA59, Novoprotein)
As to the kind of experiment: ELISA: human TGFβ1 coated (1 µg/ml), binding protein titrated 0.0006-10 nM, anti-human IgG Fc-HRP, OD450. As to the method:
as §2

T1 sequence (Q9NZQ7 19-239 limits assumed): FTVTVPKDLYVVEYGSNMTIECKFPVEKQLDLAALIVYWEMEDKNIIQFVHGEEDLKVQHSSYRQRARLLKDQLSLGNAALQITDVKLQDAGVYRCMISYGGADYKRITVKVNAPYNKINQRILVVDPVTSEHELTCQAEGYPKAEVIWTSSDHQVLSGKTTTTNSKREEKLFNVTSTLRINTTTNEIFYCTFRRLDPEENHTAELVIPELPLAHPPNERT
T3 sequence (P01137 279-390 limits assumed): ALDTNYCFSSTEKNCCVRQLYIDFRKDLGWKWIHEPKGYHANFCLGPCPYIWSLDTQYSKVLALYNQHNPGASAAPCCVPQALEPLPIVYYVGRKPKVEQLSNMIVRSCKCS

B1: HuEM0005-86-4 (antibody, human IgG1, V domains shown)
VH: EVQLVQSGAEVKKPGASVKVSCKASGYTFTTYGINWVRQAPGQGLEWIGYIYIGNGYTEYNEKFKGRVTLTSDTSTSTAYMELSSLRSDDTAVYYCARDLMVIAPKTMDYWGQGTTVTVSS
VL: DIQMTQSPSSVSASVGDRVTITCKASQDVGTAVAWYQQKPGKAPKLLIYWASTRHTGVPDRFTGSGSGTDFTLTISSLQPEDFATYYCQQYSSYPYTFGGGTKVEIK
On to B1, for which, in test [1], the “Off-Rate Ratio to that of EM0005-86c” value was found to be 78%. Also, the koff in test [2] is 0.000957 s⁻¹.

B2: HuEM0005-86-14 (antibody, human IgG1, V domains shown)
VH: EVQLVQSGAEVKKPGASVKVSCKASGYTFTTYGINWVRQAPGQGLEWIGYIYIGNGYTEYNEKFKGRVTLTSDPSTRTAYMELSSLRSDDTAVYYCARDLMVIAPKTMDYWGQGTTVTVSS
VL: DIQMTQSPSSVSASVGDRVTITCKASQDVGTAVAWYQQKPGKSPKLLIYWASTRHTGVPDRFTGSGSGTDFTLTISSLQPEDFATYFCQQYSSYPYTFGGGTKVEIK
In the case of B2, the “Off-Rate Ratio to that of EM0005-86c” value in test [3] amounted to 81%. In test [4], this molecule had a koff of 0.000838 s⁻¹.

B3: HuEM0005-86-2 (antibody, human IgG1, V domains shown)
VH: EVQLVQSGAEVKKPGASVKVSCKASGYTFTTYGINWVRQAPGQGLEWMGYIYIGNGYTEYNEKFKGRVTMTSDTSTSTAYMELSSLRSDDTAVYYCARDLMVIAPKTMDYWGQGTTVTVSS
VL: DIQMTQSPSSVSASVGDRVTITCKASQDVGTAVAWYQQKPGKAPKLLIYWASTRHTGVPDRFTGSGSGTDFTLTISSLQPEDFATYYCQQYSSYPYTFGGGTKVEIK
Consider B3, for which the “Off-Rate Ratio to that of EM0005-86c” value in test [1] was 72%. In test [2], the off-rate (koff) stood at 0.000887 s⁻¹.

B4: HuEM0005-86-6 (antibody, human IgG1, V domains shown)
VH: EVQLVQSGAEVKKPGASVKVSCKTSGYTFTTYGINWVRQAPGQGLEWIGYIYIGNGYTEYNEKFKGKATLTSDPSTRTAYMELSSLRSDDTAVYYCARDLMVIAPKTMDYWGQGTTVTVSS
VL: DIQMTQSPSSVSASVGDRVTITCKASQDVGTAVAWYQQKPGKAPKLLIYWASTRHTGVPDRFTGSGSGTDFTLTISSLQPEDFATYYCQQYSSYPYTFGGGTKVEIK
notes: measured without the G55A change
For the molecule B4, the “Off-Rate Ratio to that of EM0005-86c” value in test [1] amounted to 99%. In addition, in test [2], the koff turned out to be 0.00122 s⁻¹.

B5: HuEM0005-86-5 (antibody, human IgG1, V domains shown)
VH: EVQLVQSGAEVKKPGASVKVSCKASGYTFTTYGINWVRQAPGQGLEWIGYIYIGNGYTEYNEKFKGKATLTSDTSTSTAYMELSSLRSDDTAVYYCARDLMVIAPKTMDYWGQGTTVTVSS
VL: DIQMTQSPSSVSASVGDRVTITCKASQDVGTAVAWYQQKPGKAPKLLIYWASTRHTGVPDRFTGSGSGTDFTLTISSLQPEDFATYYCQQYSSYPYTFGGGTKVEIK
Take B5: the “Off-Rate Ratio to that of EM0005-86c” value in test [3] was found to be 120%. For the same molecule, the off-rate constant (koff) in test [4] worked out at 0.00124 s⁻¹.

B6: HuEM0005-86-3 (antibody, human IgG1, V domains shown)
VH: EVQLVQSGAEVKKPGASVKVSCKASGYTFTTYGINWVRQAPGQGLEWMGYIYIGNGYTEYNEKFKGRVTLTSDTSTSTAYMELSSLRSDDTAVYYCARDLMVIAPKTMDYWGQGTTVTVSS
VL: DIQMTQSPSSVSASVGDRVTITCKASQDVGTAVAWYQQKPGKAPKLLIYWASTRHTGVPDRFTGSGSGTDFTLTISSLQPEDFATYYCQQYSSYPYTFGGGTKVEIK
Consider B6, for which the “Off-Rate Ratio to that of EM0005-86c” value in test [1] came to 115%. For the same molecule, the koff in test [2] worked out at 0.00142 s⁻¹.

B7: HuEM0005-86-13 (antibody, human IgG1, V domains shown)
VH: EVQLVQSGAEVKKPGASVKVSCKTSGYTFTTYGINWVRQAPGQGLEWIGYIYIGNGYTEYNEKFKGKATLTSDPSTRTAYMELSSLRSDDTAVYYCARDLMVIAPKTMDYWGQGTTVTVSS
VL: DIQMTQSPSSVSASVGDRVTITCKASQDVGTAVAWYQQKPGKSPKLLIYWASTRHTGVPDRFTGSGSGTDFTLTISSLQPEDFATYFCQQYSSYPYTFGGGTKVEIK
In the case of B7, the “Off-Rate Ratio to that of EM0005-86c” value in test [3] turned out to be 116%. In test [4], this molecule showed a koff of 0.00119 s⁻¹.

B8: HuEM0005-86-1 (antibody, human IgG1, V domains shown)
VH: EVQLVQSGAEVKKPGASVKVSCKASGYTFTTYGINWVRQAPGQGLEWMGYIYIGNGYTEYNEKFKGRVTMTTDTSTSTAYMELSSLRSDDTAVYYCARDLMVIAPKTMDYWGQGTTVTVSS
VL: DIQMTQSPSSVSASVGDRVTITCKASQDVGTAVAWYQQKPGKAPKLLIYWASTRHTGVPDRFTGSGSGTDFTLTISSLQPEDFATYYCQQYSSYPYTFGGGTKVEIK
B8: in test [1], the “Off-Rate Ratio to that of EM0005-86c” value amounted to 120%. This molecule had a koff in test [2] of 0.00147 s⁻¹.

B9: bintrafusp alfa (bispecific antibody, human IgG1, lambda)
heavy: not shown
light: QSALTQPASVSGSPGQSITISCTGTSSDVGGYNYVSWYQQHPGKAPKLMIYDVSNRPSGVSNRFSGSKSGNTASLTISGLQAEDEADYYCSSYTSSSTRVFGTGTKVTVLGQPKANPTVTLFPPSSEELQANKATLVCLISDFYPGAVTVAWKADGSPVKAGVETTKPSKQSNNKYAASSYLSLTPEQWKSHRSYSCQVTHEGSTVEKTVAPTECS
notes: also called M7824; Bintrafusp alfa protein
For B9, the EC50 was determined as 3.6 nM in test [5] and 0.696 nM in test [6].

B10: EM0005-86c-G55A (antibody, human IgG1, V domains shown)
VH: QVQLQQSGAELVRPGSSVKMSCKTSGYTFTTYGINWVKQRPGQGLEWIGYIYIGNAYTEYNEKFKGKATLTSDPSSRTAYMQLSSLTSEDSAIYFCARDLMVIAPKTMDYWGQGTSVTVSS
VL: DIQMNQSHKFMSTSVGDRVSITCKASQDVGTAVAWYQQKPGQSPKLLIYWASTRHTGVPDRFTGGGSGTDFTLTISNVQSEDLADYFCQQYSSYPYTFGGGTKLEMK
notes: Chimeric antibody with G55A (Kabat) in CDR-H2; also called HuEM0005-86-G55A
For the molecule B10, in test [3], the “Off-Rate Ratio to that of EM0005-86c” value stood at 108%. In test [4], this molecule showed a koff of 0.00111 s⁻¹.

(Values after patent publication US20230242675A1 (SHANGHAI EPIMAB BIOTHERAPEUTICS, published 2023).)
